The record followed here is US20260217833A1 (APTEVO RESEARCH AND DEVELOPMENT, published 2026).

B1: CD4001093 (Fc fusion)
chain: DVVMTQSPDTLSLSPGERATLSCRSSQSLVHYNGYTYLHWYQQQPGQAPRLLIYKVSNRFSGIPDRFSGSGSGTDFTLTISRLEPEDFAVYFCSQTTHVPLTFGQGTKLEIKGGGGSGGGGSGGGGSGGGGSEVQLLESGGGLVQPGGSLRLSCAASGFTFSSYAMSWVRQAPGKGLEWVASISSAGTYIYYTDSVKGRFSISRDNSKNTLYLQMNSLRAEDTAVYYCARHGNGYDPLWYFDVWGQGTTVTVSS
notes: As m65; not shown: wildtype IgG1 Fc region
B2: CD4001095 (Fc fusion)
chain: DVVMTQSPDTLSLSPGERATLSCRSSQSLVHYNGYTYLHWYQQQPGQAPRLLIYKVSNRFSGIPDRFSGSGSGTDFTLTISRLEPEDFAVYFCSQTTHVPLTFGQGTKLEIKGGGGSGGGGSGGGGSGGGGSQVQLVESGGGLVQPGGSLRLSCAASGFTFSSYAMSWVRQAPGKGLVWVASISSAGTYIYYADSVKGRFTISRDNAKNTLYLQMTSLRAEDTAIYYCARHGNGYDPLWYFDVWGQGALVTVSS
notes: as for B1
B3: CD4001086 (Fc fusion)
chain: EVVMTQSPGTLSLSPGERATLSCRSSQSLVHYNGYTYLHWYQQKPGQAPRLLIYKVSNRFSGIPARFSGSGSGTDFTLTISRLEPEDLAVYFCSQTTHVPLTFGQGTKVEIKGGGGSGGGGSGGGGSGGGGSEVQLVESGGGLVQPGRSLRLSCAASGFTFSSYAMSWVRQAPGKGLEWVASISSAGTYIYYADSVQGRFTISRDNGKNSLYLQMNSLRAEDTALYYCARHGNGYDPLWYFDVWGQGTMVTVSS
notes: Partly humanized 5B9 scFv on the N-terminus of a wildtype IgG1 Fc; not shown: wildtype IgG1 Fc region
B4: CD4001097 (Fc fusion)
chain: EVVMTQSPGTLSLSPGERATLSCRSSQSLVHYNGYTYLHWYQQKPGQAPRLLIYKVSNRFSGIPARFSGSGSGTDFTLTISRLEPEDLAVYFCSQTTHVPLTFGQGTKVEIKGGGGSGGGGSGGGGSGGGGSQVQLVESGGGLVKPGGSLRLSCAASGFTFSSYAMSWVRQAPGKGLEWVASISSAGTYIYYADSVKGRFTISRDNAKNSLYLQMNSLRAEDTAVYYCARHGNGYDPLWYFDVWGAGTTVTVSS
notes: as for B1
B5: CD4001087 (Fc fusion)
chain: EVVMTQSPDTLSVSPGERATLSCRSSQSLVHYNGYTYLHWYQQKPGQVPRLLIYKVSNRFSGVPARFTGSGSGTEFTLTISSLQSEDFAVYFCSQTTHVPLTFGQGTKLEIKGGGGSGGGGSGGGGSGGGGSEVQLVESGGGLVQPGRSLRLSCAASGFTFSSYAMSWVRQAPGKGLEWVASISSAGTYIYYADSVQGRFTISRDNGKNSLYLQMNSLRAEDTALYYCARHGNGYDPLWYFDVWGQGTMVTVSS
notes: as for B1
B6: CD4001101 (Fc fusion)
scFv: DIQMTQSPSTLSASVGDRVTITCKSSQSLLFSVNQKNYLAWYQQKPGKAPKLLIYWASTRESGVPARFSGSGSGTEFTLTISSLQPDDFATYYCQHYYSYPWTFGQGTKVEVKGGGGSGGGGSGGGGSGGGGSQVQLVQSGAEVKKPGASVKVSCKASGYTFSTSWIEWIKQAPGQGLEWIGEILPGSGSTNYNENFRNKATFTADTSISTAYMELSRLRSDDTAVYYCARGDDGSYVRWYFDVWGQGTLVTVSS
notes: CDR-grafted 1D5 scFv in scFv-hFc format; not shown: the human Fc (hinge-CH2-CH3) of the scFv-hFc format
B7: CD4001102 (Fc fusion)
scFv: DIQMTQSPSSLSASVGDRVTITCKSSQSLLFSVNQKNYLAWYQQKPGKAPKLLIYWASTRESGVPSRFSGSGSGTDFTFTISSLQPEDIATYYCQHYYSYPWTFGGGTKVEIKGGGGSGGGGSGGGGSGGGGSQVQLVQSGAEVKKPGASVKVSCKASGYTFSTSWIEWIKQAPGQGLEWIGEILPGSGSTNYNENFRNKATFTADTSISTAYMELSRLRSDDTAVYYCARGDDGSYVRWYFDVWGQGTLVTVSS
notes: As m82; not shown: the human Fc (hinge-CH2-CH3) of the scFv-hFc format
B8: CD4001092 (Fc fusion)
chain: DVVMTQSPDSLAVSLGERATINCRSSQSLVHYNGYTYLHWYQQKPGQPPKLLIYKVSNRFSGVPDRFSGSGSGTDFTLTISSLQAEDVAVYFCSQTTHVPLTFGAGTKLELRGGGGSGGGGSGGGGSGGGGSEVQLVESGGGVVQPGRSLRLSCAASGFTFSSYAMSWVRQAPGKGLEWVASISSAGTYIYYADSVKGRFTISRDNSKNTLYLQMNGLRAEDTAVYYCARHGNGYDPLWYFDVWGQGTLVTVSS
notes: as for B1
B9: CD4001091 (Fc fusion)
chain: DVQMTQSPILLSASVGDRVTITCRSSQSLVHYNGYTYVHWYQQRTNGSPRLLIYKVSNRFSGVPDRFSGSGSGTDFTLTISSLQPEDIADYFCQQTTHVPLTFGAGTKVEIKGGGGSGGGGSGGGGSGGGGSEVQLVESGGGVVQPGRSLRLSCAASGFTFSSYAMSWVRQAPGKGLEWVASISSAGTYIYYADSVKGRFTISRDNSKNTLYLQMNGLRAEDTAVYYCARHGNGYDPLWYFDVWGQGTLVTVSS
notes: as for B1
B10: CD4001094 (Fc fusion)
chain: DVQMTQSPILLSASVGDRVTITCRSSQSLVHYNGYTYVHWYQQRTNGSPRLLIYKVSNRFSGVPDRFSGSGSGTDFTLTISSLQPEDIADYFCQQTTHVPLTFGAGTKVEIKGGGGSGGGGSGGGGSGGGGSEVQLLESGGGLVQPGGSLRLSCAASGFTFSSYAMSWVRQAPGKGLEWVASISSAGTYIYYTDSVKGRFSISRDNSKNTLYLQMNSLRAEDTAVYYCARHGNGYDPLWYFDVWGQGTTVTVSS
notes: as for B1
B11: CD4001098 (Fc fusion)
chain: DVQMTQSPILLSASVGDRVTITCRSSQSLVHYNGYTYVHWYQQRTNGSPRLLIYKVSNRFSGVPDRFSGSGSGTDFTLTISSLQPEDIADYFCQQTTHVPLTFGAGTKVEIKGGGGSGGGGSGGGGSGGGGSQVQLVESGGGLVKPGGSLRLSCAASGFTFSSYAMSWVRQAPGKGLEWVASISSAGTYIYYADSVKGRFTISRDNAKNSLYLQMNSLRAEDTAVYYCARHGNGYDPLWYFDVWGAGTTVTVSS
notes: as for B1
B12: CD4001096 (Fc fusion)
chain: DVQMTQSPILLSASVGDRVTITCRSSQSLVHYNGYTYVHWYQQRTNGSPRLLIYKVSNRFSGVPDRFSGSGSGTDFTLTISSLQPEDIADYFCQQTTHVPLTFGAGTKVEIKGGGGSGGGGSGGGGSGGGGSQVQLVESGGGLVQPGGSLRLSCAASGFTFSSYAMSWVRQAPGKGLVWVASISSAGTYIYYADSVKGRFTISRDNAKNTLYLQMTSLRAEDTAIYYCARHGNGYDPLWYFDVWGQGALVTVSS
notes: as for B1
B13: PDL01047 (Fc fusion, not shown: a dimerising Fc or GST; small tags and cut ends)
scFv: DVQITQSPSYLAASPGETITINCRASKSISKYLAWYQEKPGKTNKLLIYSGSTLQSGIPSRFSGSGSGTDFTLTISSLEPEDFAMYYCQQHNEYPFTFGAGTKLEIKGGGGSGGGGSGGGGSGGGGSEVQLQESGPSLVKPSQTLSLTCSVTGDSITSGYWNWIRKFPGNRLEYMGFRSYSGTTYYNPSLKSRISITRDTSKNQYYLQLNSVTTEDTATYYCARFSDFGSSENTMDYWGQGTSVTVSS
notes: also called 7A3-2LH x human IgG1 WT Fc
B14: PDL01033 (Fc fusion)
scFv: EVQLQESGPSLVKPSQTLSLTCSVTGDSITSGYWNWIRKFPGKKLEYMGYISYTGSTYYNPSLKSRISIARDTSKNQYFLQLNSVTTEDTATYYCTRGENWDGGYFDYWGQGTTLTVSSGGGGSGGGGSGGGGSGGGGSDIQMTQTTSSLSASLGDRVTISCSASQGIRNYLNWYQQKPDGTVKLLIYYTSTLHSGVPSRFSGSGSGTDYSLTISNLEPEDIATYYCQQYSKLPWTFGGGTRLEIK
notes: also called 3G11HL x human IgG1 WT Fc; not shown: human IgG1 WT Fc (hinge-CH2-CH3) and its junction to the scFv
B15: CD4001081 (bispecific antibody)
Fc-knob x CD40_1D5: EPKSSDKTHTCPPCPAPPAAAPSVFLFPPKPKDTLMISRTPEVTCVVVDVSHEDPEVKFNWYVDGVEVHNAKTKPREEQYNSTYRVVSVLTVLHQDWLNGKEYKCAVSNKALPAPIEKTISKAKGQPREPQVYTLPPSRDELTKNQVSLWCLVKGFYPSDIAVEWESNGQPENNYKTTPPVLDSDGSFFLYSKLTVDKSRWQQGNVFSCSVMHEALHNHYTQKSLSLSPGGGGSPSDIVMSQSPSSLAVSVGEKVTMSCKSSQSLLFSVNQKNYLAWYQQKPGQSPKLLIYWASTRESGVPDRFTGSGSGTDFTLTIGSVKAEDLAVYYCQHYYSYPWTFGGGTKLEIKGGGGSGGGGSGGGGSGGGGSQVQLQQSGAELMNPGASVRISCKATGYTFSTSWIEWIKQRPGHGLEWIGEILPGSGSTNYNEKFKGKATFTADTSSNTAYMQLSSLTFEDSAVYYCARGDDGSYVRWYFDVWGAGTTVTVSS
PDL_5F9 x Fc-Hole x CD40_1D5: EVQLVESGGGLVKPGGSLRLSCAASGFTFSDYGMAWVRQAPGKGLEWVAFITSLAYIIYYADSVKGRFTISRDNAKNSLYLQMNSLRAEDTAVYYCARNYGSSPYYFDYWGQGTLVTVSSGGGGSGGGGSGGGGSGGGGSDIQMTQSPSSLSASVGDRVTITCRASQDINKFLSWYQQKPGKAPKLLIHYTSSLQPGVPSRFSGSGSGTDFTLTISSLQPEDFATYYCLQYDNLYTFGQGTKLEIKEPKSSDKTHTCPPCPAPPAAAPSVFLFPPKPKDTLMISRTPEVTCVVVDVSHEDPEVKFNWYVDGVEVHNAKTKPREEQYNSTYRVVSVLTVLHQDWLNGKEYKCAVSNKALPAPIEKTISKAKGQPREPQVYTLPPSRDELTKNQVSLSCAVKGFYPSDIAVEWESNGQPENNYKTTPPVLDSDGSFFLVSKLTVDKSRWQQGNVFSCSVMHEALHNRFTQKSLSLSPGGGGSPSDIVMSQSPSSLAVSVGEKVTMSCKSSQSLLFSVNQKNYLAWYQQKPGQSPKLLIYWASTRESGVPDRFTGSGSGTDFTLTIGSVKAEDLAVYYCQHYYSYPWTFGGGTKLEIKGGGGSGGGGSGGGGSGGGGSQVQLQQSGAELMNPGASVRISCKATGYTFSTSWIEWIKQRPGHGLEWIGEILPGSGSTNYNEKFKGKATFTADTSSNTAYMQLSSLTFEDSAVYYCARGDDGSYVRWYFDVWGAGTTVTVSS

T2 sequence (Q9NZQ7 19-290): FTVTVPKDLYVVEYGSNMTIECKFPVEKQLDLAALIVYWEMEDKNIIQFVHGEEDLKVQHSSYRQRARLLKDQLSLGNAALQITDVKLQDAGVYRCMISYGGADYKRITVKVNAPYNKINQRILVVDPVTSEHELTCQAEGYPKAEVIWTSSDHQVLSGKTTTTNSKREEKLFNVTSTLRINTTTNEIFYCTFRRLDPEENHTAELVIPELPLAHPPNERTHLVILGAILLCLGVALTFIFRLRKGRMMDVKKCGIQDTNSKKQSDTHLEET

The first test deals with T1, human CD40 full-length (human, UniProt P25942 21-277).
T1 construct: Also used for CD40 of Daudi cells, of CD40-expressing HEK293 cells and of the BPS CD40/NFkB HEK293 reporter cells where the row says so; also called CD4001012; CHOK1SV/CD40
Briefly: flow cytometry, CHOK1SV/human CD40 cells. For orientation: In flow cytometry, cells or beads pass a laser one at a time.
Consider B1, for which the binding result is on record as “binds”.

Take B2: the binding result is given as “binds”.

As to B3, the “EC50 (read off the curve)” value is ~2 nM.

B4: the “EC50 (read off the curve)” value is ~4 nM.

Turning to B5, the binding result is reported as “binds”.

With B6, the binding result is “binds”.

As to B7, the binding result was “binds”.

Take B8: the binding result is reported as “binds”.

As to B9, the binding result is listed as “binds”.

As to B10, the binding result was “binds”.

Turning to B11, the binding result was “binds”.

With B12, the binding result is “binds”.

Another test addresses T2, Human PD-L1 full-length (human, UniProt Q9NZQ7 19-290).
T2 construct: also called PDL01021; CHOK1SV/huPDL1
Briefly: MSD cell binding, CHOK1SV/human PD-L1 cells; x axis without printed unit.
Consider B13, for which the binding result is “binds”.

For B14, the binding result is “binds”.

For another test, the target named is T3, Cyno PD-L1 full-length (cynomolgus, UniProt Q9NZQ7 19-290 (human entry)).
T3 construct: also called PDL01022; CHOK1SV/cynoPDL1
T3 sequence (Q9NZQ7 other isoform, or with tags, fused parts or gaps): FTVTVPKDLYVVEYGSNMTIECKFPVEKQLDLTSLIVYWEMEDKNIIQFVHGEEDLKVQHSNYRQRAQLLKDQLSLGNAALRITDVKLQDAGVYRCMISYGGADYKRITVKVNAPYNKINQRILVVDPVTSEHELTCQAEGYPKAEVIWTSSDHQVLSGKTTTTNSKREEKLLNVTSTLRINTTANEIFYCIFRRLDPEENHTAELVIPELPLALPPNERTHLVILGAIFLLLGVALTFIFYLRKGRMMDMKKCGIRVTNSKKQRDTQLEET
Briefly: MSD cell binding, CHOK1SV/cynomolgus PD-L1 cells; x axis without printed unit.
For the molecule B13, the binding result is on record as “binds”.

In the case of B14, the binding result is reported as “binds”.

A further test addresses T2, Human PD-L1 full-length. Briefly: flow cytometry, CHOK1SV/human PD-L1 cells.
With B15, the binding result is given as “binds”.

By EC50 (read off the curve) is commonly meant the concentration at which the effect is half-maximal.
